This note sets out measurements from IntAct's records for PubMed 23452855.

B1: F-box/LRR-repeat protein 21 (Mus musculus), Q8BFZ4 (parent)
chain: MKRNNFSAVNKVVQSSPVVKQPKRGLCSSLRQTHALSVLLDWGTLPHHVILQIFQYLPLIDRARASSVCRRWNEVFHIPDLWRKFEFELNQSATSYFKSTHPDLIQQIIKKHAAHLQYVSFKVDSSTESAEAACDILSQLVNCSIQTLGLISTAKPSFMNVPKSHFVSALTVVFVNSKSLSSIKIEDTPVDDPSLKILVANNSDTLRLLKMSSCPHVSSDGILCVADHCQGLRELALNYYILSDEILLALSSETHVNLEHLRIDVVSENPGQIKFHSIKKRSWDALIKHSPRVNVVMYFFLYEEEFEAFFKEETPVTHLYFGRSVSRAILGRIGLNCPRLIELVVCANGLLPLDSELIRIAKHCKNLTSLGLSECEVSCSAFVEFVRLCGRRLTQLSIMEEVLVPDDRYTPDEVHTEVSKHLGRVWFPDVMPIW
partner: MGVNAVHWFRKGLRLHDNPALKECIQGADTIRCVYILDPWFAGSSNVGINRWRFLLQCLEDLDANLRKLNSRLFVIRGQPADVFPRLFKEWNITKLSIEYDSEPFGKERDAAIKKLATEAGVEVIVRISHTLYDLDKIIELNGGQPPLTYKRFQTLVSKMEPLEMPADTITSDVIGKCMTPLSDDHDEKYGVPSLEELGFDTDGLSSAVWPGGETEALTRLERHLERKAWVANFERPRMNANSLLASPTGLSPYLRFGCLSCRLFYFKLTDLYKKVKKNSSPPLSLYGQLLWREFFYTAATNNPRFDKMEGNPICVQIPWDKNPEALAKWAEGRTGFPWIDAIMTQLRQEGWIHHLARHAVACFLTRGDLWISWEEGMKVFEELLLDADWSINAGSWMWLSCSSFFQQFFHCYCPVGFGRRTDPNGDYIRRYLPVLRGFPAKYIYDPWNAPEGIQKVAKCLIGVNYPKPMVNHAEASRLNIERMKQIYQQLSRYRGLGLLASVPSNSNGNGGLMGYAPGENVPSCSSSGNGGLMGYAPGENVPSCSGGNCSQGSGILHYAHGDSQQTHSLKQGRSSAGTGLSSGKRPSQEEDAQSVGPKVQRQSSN

This experiment covers variants of B1. As to conditions: with cry1_mouse Cry1, P97784.
As to MKRNNFSAVNKVVQSSPVVKQPKRGLCSSLRQTHALSVLLDWGTLPHHVILQIFQYLPLIDRARASSVCRRWNEVFHIPDLWRKFEFELNQSATSYFKSTHPDLIQQIIKKHAAHLQYVSFKVDSSTESAEAACDILSQLVNCSIQTLELISTAKPSFMNVPKSHFVSALTVVFVNSKSLSSIKIEDTPVDDPSLKILVANNSDTLRLLKMSSCPHVSSDGILCVADHCQGLRELALNYYILSDEILLALSSETHVNLEHLRIDVVSENPGQIKFHSIKKRSWDALIKHSPRVNVVMYFFLYEEEFEAFFKEETPVTHLYFGRSVSRAILGRIGLNCPRLIELVVCANGLLPLDSELIRIAKHCKNLTSLGLSECEVSCSAFVEFVRLCGRRLTQLSIMEEVLVPDDRYTPDEVHTEVSKHLGRVWFPDVMPIW [G149E], the “effect of a mutation on the interaction” value is “decreasing interaction strength”.
